# Assay results: article PMC3793302 (Developmental cell, 2004)
# B1: C-TSK-Myc-His expressed in Xenopus embryos (natural protein, chick, UniProt Q65Z91 20-369, looked up)
# chain: KTCFPGCHCEVESFGLFDSFSLTKVDCSGIGSHIVPVPIPLDTSYLDLSSNKLETINESMLTGPGYTTLVSLDLSYNNIAKISSTTFSRLRYLESLDLSHNSLEVLPEDCFSSSPLGDIDLSNNKLLDIALDVFASKGQGKPLNVDLSNNMLSKITRNHEKSIPNIQNLNLSGNRLTSVPNLQGIPLRYLNLDGNPLAKIEKGDFKGLKGLIHLSLSGLHDFRELSPYSFKELPALQVLDLSNNPNLRSLTAEVIFGLNSIQELNLSGTGVSSLPKTVLKYLPSLKSITLRKNIQCFKTIKEGQYHRQIGLTKLGLGAEELLWCKTPCPRPVCRCRDKPLQSAPQNLPTP
# Molecular target: the molecule itself
# Experiment: cross-linking
protein,measurement,value
B1,stoichiometry N,2
